Patent publication US20240262791

Tested on: dPsCas13b-133FSY (in HEK293T) A133FSY (fluorosulfate-L-tyrosine) (Prevotella sp. P5-125)
Assay: pulldown
Conditions: RIP RT-qPCR in HEK293T; no enrichment without crRNA

Question: Which binding signal (fold over dPsCas13b-WT) does the source give for crACTB guide ; ACTB mRNA here?
Answer: 4
